91 sequences from the supplement of paper PMC9112550, “Optimization of the antimicrobial peptide Bac7 by deep mutational scanning” (BMC Biology, 2022) can be followed below.

The test system of the data set is Escherichia coli TOP10. Nature of the data set: shrunken log2 fold change of peptide-encoding DNA abundance (4.5 h post-induction vs induction); higher = less antimicrobial activity (less host growth inhibition). The settings on record: time post-induction: 4.5 h; library: site-saturation at positions 5, 18, 19, 20.
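Further: peptides expressed intracellularly from a pBAD plasmid library in pooled LB shake-flask culture, induced with 0.3% L-arabinose, DNA abundance read by NGS, three biological replicates, DESeq2 with apeglm shrinkage.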

For the sequence RRIRKRPPRLPRPRPRPKKTPRP, the “shrunken log2 fold change” value was found to be 0.0396. In the case of RRIRVRPPRLPRPRPRPSANPRP it was 0.122; in that of RRIRDRPPRLPRPRPRPASHPRP, 0.0378; in that of RRIRCRPPRLPRPRPRPKPHPRP, 0.398. In the case of RRIRKRPPRLPRPRPRPAIFPRP it was 0.233.

As for RRIRPRPPRLPRPRPRPTKYPRP, the “shrunken log2 fold change” value was -0.344. With RRIRTRPPRLPRPRPRPGVCPRP, the “shrunken log2 fold change” value came out at 0.442. Then RRIRVRPPRLPRPRPRPGLKPRP, with 0.049. In the case of RRIRQRPPRLPRPRPRPWGFPRP it was 0.0223; in that of RRIRARPPRLPRPRPRPDHTPRP, -0.155. Then RRIRKRPPRLPRPRPRPYTRPRP, with -0.167. Take RRIRNRPPRLPRPRPRPYNSPRP: the “shrunken log2 fold change” value is -1.61. Then RRIRQRPPRLPRPRPRPKDMPRP, with 0.0374. In the case of RRIRVRPPRLPRPRPRPPTSPRP it was 0.101.

Take RRIRQRPPRLPRPRPRPQPAPRP: the “shrunken log2 fold change” value stood at 0.218.

In the case of RRIRPRPPRLPRPRPRPMWWPRP, the “shrunken log2 fold change” value came to 0.189. In the case of RRIRARPPRLPRPRPRPYPCPRP it was -0.417. In the case of RRIRSRPPRLPRPRPRPIFIPRP, the “shrunken log2 fold change” value is -0.329. Then RRIRFRPPRLPRPRPRPPFEPRP, with 0.347. Then RRIRYRPPRLPRPRPRPSTSPRP, with 1.42. As to RRIRKRPPRLPRPRPRPPVFPRP, the “shrunken log2 fold change” value was -0.00134.

Consider RRIRCRPPRLPRPRPRPYGVPRP, for which the “shrunken log2 fold change” value is -0.159. Then RRIRERPPRLPRPRPRPRSHPRP, with -0.349; and RRIRQRPPRLPRPRPRPECYPRP, with 0.0583; and RRIRKRPPRLPRPRPRPPFSPRP, with -0.227. In the case of RRIRPRPPRLPRPRPRPNGLPRP, the “shrunken log2 fold change” value came to 0.015. Regarding RRIRSRPPRLPRPRPRPYGKPRP, the “shrunken log2 fold change” value is -0.0603. In the case of RRIRARPPRLPRPRPRPTFTPRP it was 0.51; in that of RRIRTRPPRLPRPRPRPNWGPRP, -0.0445. Then RRIRNRPPRLPRPRPRPTCNPRP, with -0.288; and RRIRERPPRLPRPRPRPVEMPRP, with 0.139. In the case of RRIRLRPPRLPRPRPRPYLNPRP it was -1.13. For RRIRKRPPRLPRPRPRPWVRPRP, the “shrunken log2 fold change” value is -0.0489.

For RRIRLRPPRLPRPRPRPRCFPRP, the “shrunken log2 fold change” value was -0.0548. In the case of RRIRHRPPRLPRPRPRPFHLPRP it was -0.438. In the case of RRIRERPPRLPRPRPRPNNGPRP it was -0.0529; in that of RRIRARPPRLPRPRPRPKSQPRP, 0.286; in that of RRIRIRPPRLPRPRPRPIIEPRP, -0.0807. In the case of RRIRCRPPRLPRPRPRPSGFPRP it was -0.218; in that of RRIRMRPPRLPRPRPRPCGIPRP, -0.0517; in that of RRIRCRPPRLPRPRPRPVVWPRP, 0.354. Take RRIRIRPPRLPRPRPRPAYKPRP: the “shrunken log2 fold change” value was -1.89. In the case of RRIRQRPPRLPRPRPRPDRIPRP it was -0.185. Take RRIRGRPPRLPRPRPRPDKMPRP: the “shrunken log2 fold change” value was determined as 0.261. Regarding RRIRSRPPRLPRPRPRPVYEPRP, the “shrunken log2 fold change” value was -0.617.

Turning to RRIRARPPRLPRPRPRPFNNPRP, the “shrunken log2 fold change” value is -0.688.

For RRIRNRPPRLPRPRPRPNENPRP, the “shrunken log2 fold change” value was found to be 0.215. Take RRIRTRPPRLPRPRPRPGGKPRP: the “shrunken log2 fold change” value was -0.215.

Turning to RRIRDRPPRLPRPRPRPNEDPRP, the “shrunken log2 fold change” value is 0.00355. In the case of RRIRARPPRLPRPRPRPEQFPRP it was 0.218. RRIRNRPPRLPRPRPRPCAVPRP: the “shrunken log2 fold change” value was -0.273. Then RRIRDRPPRLPRPRPRPHCRPRP, with -0.123; and RRIRCRPPRLPRPRPRPDYRPRP, with -0.0343; and RRIRMRPPRLPRPRPRPAYWPRP, with 0.509. In the case of RRIRFRPPRLPRPRPRPWKKPRP it was -0.00973; in that of RRIRHRPPRLPRPRPRPKRWPRP, 0.293; in that of RRIRNRPPRLPRPRPRPCYIPRP, -0.33. Then RRIRWRPPRLPRPRPRPNFLPRP, with -0.308; and RRIRPRPPRLPRPRPRPRKCPRP, with 0.0115. Consider RRIRFRPPRLPRPRPRPIFDPRP, for which the “shrunken log2 fold change” value is -0.268. In the case of RRIRPRPPRLPRPRPRPKYNPRP it was -0.633.

Consider RRIRSRPPRLPRPRPRPYGTPRP, for which the “shrunken log2 fold change” value was -0.196. Turning to RRIRKRPPRLPRPRPRPQEDPRP, the “shrunken log2 fold change” value was 0.0977.

For the sequence RRIRWRPPRLPRPRPRPMQRPRP, the “shrunken log2 fold change” value worked out at 0.667. For RRIRARPPRLPRPRPRPMNMPRP, the “shrunken log2 fold change” value was -0.0785. In the case of RRIRSRPPRLPRPRPRPSERPRP it was 0.245; in that of RRIRGRPPRLPRPRPRPMCPPRP, 0.0883; in that of RRIRTRPPRLPRPRPRPNTRPRP, -0.318. In the case of RRIRHRPPRLPRPRPRPNIYPRP it was -0.11; in that of RRIRYRPPRLPRPRPRPRQNPRP, 0.345; in that of RRIRERPPRLPRPRPRPCYSPRP, -0.704. With RRIRPRPPRLPRPRPRPRYCPRP, the “shrunken log2 fold change” value was -0.191. In the case of RRIRARPPRLPRPRPRPPQPPRP it was 1.03; in that of RRIRIRPPRLPRPRPRPCMAPRP, -0.335. As to RRIRRRPPRLPRPRPRPIIWPRP, the “shrunken log2 fold change” value was -0.0862.

Turning to RRIRQRPPRLPRPRPRPNEWPRP, the “shrunken log2 fold change” value was -0.00822.

Regarding RRIRNRPPRLPRPRPRPRYPPRP, the “shrunken log2 fold change” value was -0.121. On to RRIRKRPPRLPRPRPRPKERPRP, for which the “shrunken log2 fold change” value was -0.0188. Then RRIRQRPPRLPRPRPRPTFQPRP, with 0.00826; and RRIRDRPPRLPRPRPRPKVWPRP, with 0.437; and RRIRVRPPRLPRPRPRPLWIPRP, with -0.189. Then RRIRTRPPRLPRPRPRPWAIPRP, with -0.205; and RRIRYRPPRLPRPRPRPIVGPRP, with 0.1.

Regarding RRIRARPPRLPRPRPRPLTSPRP, the “shrunken log2 fold change” value is 0.209. In the case of RRIRNRPPRLPRPRPRPAPGPRP it was 0.164; in that of RRIRPRPPRLPRPRPRPDINPRP, -0.673; in that of RRIRWRPPRLPRPRPRPSHFPRP, -0.151. Turning to RRIRKRPPRLPRPRPRPLQVPRP, the “shrunken log2 fold change” value amounted to 0.333. Then RRIRVRPPRLPRPRPRPDTEPRP, with 0.0532; and RRIRCRPPRLPRPRPRPINHPRP, with -0.607; and RRIRMRPPRLPRPRPRPPDIPRP, with 0.121.
